# Residue numbers refer to the chain shown, from its start.
# T1: FLT3/TKD mutant (D835, Aspartic acid to Tyrosine change, in full-length FLT3) (human) (UniProt P36888)
# T1 sequence: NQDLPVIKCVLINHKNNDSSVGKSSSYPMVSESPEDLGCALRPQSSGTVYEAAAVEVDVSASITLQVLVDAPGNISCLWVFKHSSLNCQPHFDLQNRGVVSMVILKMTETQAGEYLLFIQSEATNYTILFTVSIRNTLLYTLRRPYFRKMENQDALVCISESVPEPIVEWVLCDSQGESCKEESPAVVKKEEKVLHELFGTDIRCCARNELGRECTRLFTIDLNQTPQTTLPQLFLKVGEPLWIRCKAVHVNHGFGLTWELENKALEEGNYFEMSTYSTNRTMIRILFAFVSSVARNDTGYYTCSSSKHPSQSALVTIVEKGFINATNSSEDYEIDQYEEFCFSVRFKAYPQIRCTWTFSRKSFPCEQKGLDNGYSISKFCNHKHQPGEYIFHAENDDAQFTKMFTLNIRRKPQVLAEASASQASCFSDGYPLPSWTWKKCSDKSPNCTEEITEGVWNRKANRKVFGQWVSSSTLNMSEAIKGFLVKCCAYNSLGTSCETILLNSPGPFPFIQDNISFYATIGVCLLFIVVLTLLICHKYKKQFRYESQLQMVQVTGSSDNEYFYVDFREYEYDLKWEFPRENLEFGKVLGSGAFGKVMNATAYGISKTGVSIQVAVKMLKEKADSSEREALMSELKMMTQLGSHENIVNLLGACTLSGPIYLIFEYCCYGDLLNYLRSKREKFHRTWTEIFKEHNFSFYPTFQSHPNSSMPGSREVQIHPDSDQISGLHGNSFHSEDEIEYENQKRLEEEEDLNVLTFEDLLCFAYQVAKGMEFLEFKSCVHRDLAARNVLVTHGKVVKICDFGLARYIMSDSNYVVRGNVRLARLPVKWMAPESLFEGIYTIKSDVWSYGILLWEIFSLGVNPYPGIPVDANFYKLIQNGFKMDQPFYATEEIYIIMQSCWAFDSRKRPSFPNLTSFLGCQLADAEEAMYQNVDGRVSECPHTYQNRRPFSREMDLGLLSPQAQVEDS
# T2: wild-type FLT3 (full-length, expressed in FL-/- MEF cells) (human) (UniProt P36888)
# T2 sequence: T1 sequence with Y809D
# T3: FLT3/ITD mutant (addition of 6 amino acids, RTDFRE, after amino acid No. 596 of full-length FLT3) (human) (UniProt P36888)
# T3 sequence: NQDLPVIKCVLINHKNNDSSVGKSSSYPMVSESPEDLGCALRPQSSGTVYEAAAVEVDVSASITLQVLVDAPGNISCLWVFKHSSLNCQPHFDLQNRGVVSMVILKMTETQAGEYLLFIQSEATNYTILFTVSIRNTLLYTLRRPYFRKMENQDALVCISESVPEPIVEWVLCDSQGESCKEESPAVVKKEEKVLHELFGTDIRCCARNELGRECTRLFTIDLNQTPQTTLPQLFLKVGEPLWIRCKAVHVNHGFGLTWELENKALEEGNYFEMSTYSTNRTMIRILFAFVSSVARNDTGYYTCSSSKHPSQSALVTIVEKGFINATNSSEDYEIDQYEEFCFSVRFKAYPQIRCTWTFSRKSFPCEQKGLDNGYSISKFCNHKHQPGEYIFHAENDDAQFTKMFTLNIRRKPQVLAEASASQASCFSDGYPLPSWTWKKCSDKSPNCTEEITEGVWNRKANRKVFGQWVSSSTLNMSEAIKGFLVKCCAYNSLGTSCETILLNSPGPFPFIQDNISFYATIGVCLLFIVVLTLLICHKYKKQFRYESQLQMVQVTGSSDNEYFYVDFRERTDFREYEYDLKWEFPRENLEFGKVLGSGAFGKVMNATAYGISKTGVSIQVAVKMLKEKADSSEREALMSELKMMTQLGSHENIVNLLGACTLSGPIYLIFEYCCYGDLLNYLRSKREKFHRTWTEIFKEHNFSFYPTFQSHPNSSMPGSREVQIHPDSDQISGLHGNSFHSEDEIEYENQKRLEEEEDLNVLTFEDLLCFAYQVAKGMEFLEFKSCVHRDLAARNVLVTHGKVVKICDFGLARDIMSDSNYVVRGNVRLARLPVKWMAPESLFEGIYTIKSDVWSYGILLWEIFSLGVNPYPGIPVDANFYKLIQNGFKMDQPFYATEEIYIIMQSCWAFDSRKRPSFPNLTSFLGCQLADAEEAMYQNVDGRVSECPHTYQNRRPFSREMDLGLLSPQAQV
# B1: Recombinant human FL (FLT3 ligand), PeproTech (ligand)
# chain: TQDCSFQHSPISSDFAVKIRELSDYLLQDYPVTVASNLQDEELCGGLWRLVLAQRWMERLKTVAGSKMQGLLERVNTEIHFVTKCAFQPPPSCLRFVQTNISRLLQETSEQLVALKPWITRQNFSRCLELQCQPDSSTLPPPWSPRPLEATAPTA
# B2: secreted form of FL expressed from a lentiviral vector (coding sequence from pUMVC3-hFLex plasmid) (ligand)
# chain: TQDCSFQHSPISSDFAVKIRELSDYLLQDYPVTVASNLQDEELCGGLWRLVLAQRWMERLKTVAGSKMQGLLERVNTEIHFVTKCAFQPPPSCLRFVQTNISRLLQETSEQLVALKPWITRQNFSRCLELQCQPDSSTLPPPWSPRPLEATAPTAP
# Legend:
# [1] = tested on: FLT3 autophosphorylation in Molm14 cells (FLT3/ITD); experiment: Inhibition of FLT3 autophosphorylation in Molm14 cells in presence of FL (immunoblot); type: cell-based; conditions: for effect of FL on dose response curve for inhibition of FLT3 autophosphorylation: exogenous FL, in medium and plasma; for effect of addition of FL on inhibition at the highest doses used: medium and plasma
# Protocol: (§1) Leukemia cells were washed in PBS, then lysed by re-suspending them in lysis buffer (20 mM Tris pH 7.4, 100 mM NaCl, 1% Igepal (Sigma, St. Louis, Mo.), 1 mM EDTA, 2 mM NaV04, plus Complete protease inhibitor (Roche)) for 30 minutes while rocking. The extract was clarified by centrifugation at 14,000 rpm and the supernatant was assayed for protein (Bio-Rad, Richmond, Calif.). A 50 μg aliquot was removed as whole-cell lysate for analysis of STAT5, and the remainder was used for immunoprecipitation with anti-FLT3 antibody. Anti-FLT3 antibody (SI8; Santa Cruz Biotechnology, Santa Cruz, Calif.) was added to the extract for overnight incubation, then protein A sepharose (Upstate Biotechnology, Lake Placid, N.Y.) was added for 2 additional hours. Separate SDS-PAGE (sodium dodecylsulfate polyacrylamide electrophoresis) gels for whole-cell lysate and immunoprecipitates were run in parallel, After transfer to Immobilon membranes (Millipore, Bedford, Mass.), immunoblotting was performed with antiphosphotyrosine antibody (4G10; Upstate Biotechnology, Lake Placid, N.Y.) to detect phosphorylated FLT3, and then stripped and re-probed with anti-FLT3 antibody to measure total FLT3. Proteins were visualized using chemiluminescence (ECL; GE Healthcare, Piscataway, N.J.), exposed on Kodak BioMax XAR Film, developed, and scanned using a BioRad GS800 densitometer.
# FLT3 [2] = conditions: previous monotherapy trials; cited from earlier work
# FLT3 [3] = experiment: Plasma inhibitory activity (PIA) assay for FLT3 with patient plasma on TF/ITD cells; type: cell-based, human; conditions: for mean PIA value: AML15 trial
# Protocol: as §1
# Frozen plasma samples were thawed and clarified by centrifugation at 14,000 rpm for 2 minutes. All assays described herein were performed within 12 months of collection. For each time point, 2×10^6 TF/ITD were incubated with 1 ml plasma at 37° C. for 1 hour. The cells were washed twice with ice-cold PBS then lysed. After immunoblotting for phosphorylated FLT3 as described above, densitometric analysis was performed on the bands and the PIA for a given plasma sample was calculated by expressing the density of its corresponding band as a percentage of the density of the baseline band (which was arbitrarily set at 100%).
# [4] = target: T1, FLT3/TKD mutant (D835, Aspartic acid to Tyrosine change, in full-length FLT3) (human); experiment: cell-based or functional assay
# [5] = target: T2, wild-type FLT3 (full-length, expressed in FL-/- MEF cells) (human); experiment: cell-based or functional assay
# [6] = target: T3, FLT3/ITD mutant (addition of 6 amino acids, RTDFRE, after amino acid No. 596 of full-length FLT3) (human); experiment: cell-based or functional assay
molecule,measurement,setting,value
"CNC(=O)c1cc(Oc2ccc(NC(=O)Nc3ccc(Cl)c(C(F)(F)F)c3)cc2)ccn1 [sorafenib, Sorafenib]",effect of FL on dose response curve for inhibition of FLT3 autophosphorylation,[1],upward shift in the dose response curves
same,effect of addition of FL on inhibition at the highest doses used,[1],loss of complete inhibition
"C[C@]12O[C@H](C[C@]1(O)CO)n1c3ccccc3c3c4c(c5c6ccccc6n2c5c31)CNC4=O [lestaurtinib, Lestaurtinib]",FLT3 autophosphorylation remaining with FL,"[1]; 10 μM in plasma, 3 ng/mL FL",significant residual FLT3 autophosphorylation
same,effect of FL on dose response curve for inhibition of FLT3 autophosphorylation,[1],upward shift in the dose response curve
same,trough levels in vivo sufficient to induce FLT3 inhibition to 15% of baseline,FLT3 [2],5 µM
same,samples below 15% of baseline FLT3 activity,"FLT3 [3]; AML15 trial (newly diagnosed AML), Day 15 trough",all 18
same,mean PIA value,"FLT3 [3]; course 1, 18 samples",3 % of baseline
same,mean PIA value,"FLT3 [3]; courses 2 through 4, 18 samples",6.8%
same,samples achieving target level of inhibition (FLT3 below 15% of baseline),"FLT3 [3]; Cephalon 204 trial (relapsed AML), Day 15 trough, 78 samples",62%
O=C(c1ccc(/C=C/c2n[nH]c3ccccc23)cc1)N1CCNCC1 [KW-2449],effect of FL on dose response curve for inhibition of FLT3 autophosphorylation,[1],upward shift in the dose response curves
same,effect of addition of FL on inhibition at the highest doses used,[1],loss of complete inhibition
B1,AKT phosphorylation in BaF3/TKD cells after FL stimulation,[4],2.2 fold
same,"FLT3 phosphorylation (anti-FLT3 IP, 4G10 immunoblot, densitometry) in FL-/- MEF-TKD cells, FL 100 ng/mL 15 min",[4],> 4 fold
same,"FLT3 phosphorylation in TF1/TKD cells, exogenous FL 15 min",[4],> 2 fold
same,STAT5 phosphorylation in TF1/TKD cells after FL stimulation,[4],1.8 fold
same,"apoptotic population (Annexin V/7AAD, FACS) of TF1/TKD cells, 48 h serum-free, with FL",[4],31.6%
same,"apoptotic population (Annexin V/7AAD, FACS) of TF1/TKD cells, 48 h serum-free, without FL",[4],40.2%
same,"FLT3 phosphorylation (anti-FLT3 IP, 4G10 immunoblot, densitometry) in FL-/- MEF-FLT3 cells, FL 100 ng/mL 15 min",[5],> 4 fold
same,AKT phosphorylation in BaF3/ITD cells after FL stimulation,[6],1.3 fold
same,"FLT3 phosphorylation (anti-FLT3 IP, 4G10 immunoblot, densitometry) in FL-/- MEF-ITD cells, FL 100 ng/mL 15 min",[6],> 4 fold
same,"FLT3 phosphorylation in TF1/ITD cells, exogenous FL 15 min",[6],> 2 fold
same,STAT5 phosphorylation in TF1/ITD cells after FL stimulation,[6],1.8 fold
same,"apoptotic population (Annexin V/7AAD, FACS) of TF1/ITD cells, 48 h serum-free, with FL",[6],49.5%
same,"apoptotic population (Annexin V/7AAD, FACS) of TF1/ITD cells, 48 h serum-free, without FL",[6],61.3%
B2,"FLT3 phosphorylation in FL-/- MEF-TKD cells stably expressing FL, no exogenous FL",[4],> 3 fold
same,"FLT3 phosphorylation in FL-/- MEF-FLT3 cells stably expressing FL, no exogenous FL",[5],> 3 fold
same,"FLT3 phosphorylation in FL-/- MEF-ITD cells stably expressing FL, no exogenous FL",[6],> 3 fold

# From patent publication US20130156764A1, “NEUTRALIZATION OF FLT3 LIGAND AS A LEUKEMIA THERAPY” (The Johns Hopkins University, priority 2010, published 2013)
